Results reported in publication PMC7329908, “Glucocorticoid receptor complexes form cooperatively with the Hsp90 co-chaperones Pp5 and FKBPs” (Scientific Reports, 2020).

Columns and labels:
Conditions in all cases: both partners purified
[1] = target: T1, C. elegans Hsp90 (HSP-90) (C. elegans, UniProt Q18688 1-702); test: AUC; sedimentation velocity with fluorescence detection; 600 nM ATTO 488-labelled GRLBDm, 3 μM unlabelled chaperones and cofactors, 2 mM ATPγS; 20 mM HEPES, 20 mM KCl, 5 mM MgCl2, 50 μM dexamethasone, pH 7.5; 42,000 rpm, 20 °C
T1 construct: HSP-90 (Hsp90 homolog), C. elegans; also called nematode HSP-90; nematode Hsp90; source: E. coli BL21 (DE3), purified (HisTrap, Resource Q, Superdex size exclusion)

[2] = target: T2, human Hsp90β (human, UniProt P08238 1-724); test: AUC; sedimentation velocity with fluorescence detection; 600 nM ATTO 488-labelled GRLBDm, 3 μM unlabelled chaperones and cofactors, no nucleotide; 20 mM HEPES, 20 mM KCl, 5 mM MgCl2, 50 μM dexamethasone, pH 7.5; 42,000 rpm, 20 °C
T2 construct: Hsp90β, human; source: E. coli BL21 (DE3), purified (HisTrap, Resource Q, Superdex size exclusion)
T2 sequence (P08238 whole entry): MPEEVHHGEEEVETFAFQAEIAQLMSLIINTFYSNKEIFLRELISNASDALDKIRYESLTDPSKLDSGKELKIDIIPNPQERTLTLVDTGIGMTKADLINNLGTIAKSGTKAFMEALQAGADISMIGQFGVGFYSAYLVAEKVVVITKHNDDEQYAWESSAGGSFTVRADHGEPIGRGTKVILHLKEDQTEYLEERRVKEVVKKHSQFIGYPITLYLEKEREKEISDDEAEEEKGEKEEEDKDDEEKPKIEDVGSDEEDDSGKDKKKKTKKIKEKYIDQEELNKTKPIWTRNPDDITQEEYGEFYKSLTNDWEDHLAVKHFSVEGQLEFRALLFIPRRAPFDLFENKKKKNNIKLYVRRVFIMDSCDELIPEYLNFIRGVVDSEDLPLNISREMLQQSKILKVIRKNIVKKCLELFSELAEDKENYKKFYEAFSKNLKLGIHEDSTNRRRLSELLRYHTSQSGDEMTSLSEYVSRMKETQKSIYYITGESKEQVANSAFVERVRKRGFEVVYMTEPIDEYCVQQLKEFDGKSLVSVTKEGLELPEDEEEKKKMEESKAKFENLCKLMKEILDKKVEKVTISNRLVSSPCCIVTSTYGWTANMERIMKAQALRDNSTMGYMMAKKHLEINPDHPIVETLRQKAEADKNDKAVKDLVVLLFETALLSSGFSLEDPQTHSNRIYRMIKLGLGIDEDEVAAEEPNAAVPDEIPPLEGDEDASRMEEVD

[3] = target: T1, C. elegans Hsp90 (HSP-90); test: as above
[4] = target: T2, human Hsp90β; test: AUC; sedimentation velocity with fluorescence detection; 600 nM ATTO 488-labelled GRLBDm, 3 μM unlabelled chaperones and cofactors, 2 mM ATPγS; 20 mM HEPES, 20 mM KCl, 5 mM MgCl2, 50 μM dexamethasone, pH 7.5; 42,000 rpm, 20 °C

B1: PPH-5, nematode protein phosphatase, homolog of human Pp5 (enzyme, C. elegans, UniProt Q9NES8 1-496, looked up)
chain: MAATITDDIVATVLESIEEKSYEDEKEKAGMIKDEANQFFKDQVYDVAADLYSVAIEIHPTAVLYGNRAQAYLKKELYGSALEDADNAIAIDPSYVKGFYRRATANMALGRFKKALTDYQAVVKVCPNDKDARAKFDECSKIVRRQKFEAAISTDHDKKTVAETLDINAMAIEDSYDGPRLEDKITKEFVLQLIKTFKNQQKLHKKYAFKMLLEFYNYVKSLPTMVEITVPTGKKFTICGDVHGQFYDLCNIFEINGYPSETNPYLFNGDFVDRGSFSVETIFTMIGFKLLYPNHFFMSRGNHESDVMNKMYGFEGEVKAKYTQQMCDMFTETFCWLPLCHLINEKIFVCHGGLFKEDGVTLEDIRKTDRNRQPPDEGIMCDLLWSDPQPINGRSPSKRGVGCQFGPDVTSKWCETNGIEYVVRSHEVKPEGYEMHHNGQCFTVFSAPNYCDQMNNKGAFITITGDNLTPRFTPFDAVPHPKLPPMAYANSLFGFN
notes: PPH-5, TPR-containing serine/threonine phosphatase, C. elegans; source: E. coli BL21 (DE3), purified (HisTrap, Resource Q, Superdex size exclusion)
B1: binds [1].

B2: human protein phosphatase Pp5 (enzyme, UniProt P53041 1-499, looked up)
chain: MAMAEGERTECAEPPRDEPPADGALKRAEELKTQANDYFKAKDYENAIKFYSQAIELNPSNAIYYGNRSLAYLRTECYGYALGDATRAIELDKKYIKGYYRRAASNMALGKFRAALRDYETVVKVKPHDKDAKMKYQECNKIVKQKAFERAIAGDEHKRSVVDSLDIESMTIEDEYSGPKLEDGKVTISFMKELMQWYKDQKKLHRKCAYQILVQVKEVLSKLSTLVETTLKETEKITVCGDTHGQFYDLLNIFELNGLPSETNPYIFNGDFVDRGSFSVEVILTLFGFKLLYPDHFHLLRGNHETDNMNQIYGFEGEVKAKYTAQMYELFSEVFEWLPLAQCINGKVLIMHGGLFSEDGVTLDDIRKIERNRQPPDSGPMCDLLWSDPQPQNGRSISKRGVSCQFGPDVTKAFLEENNLDYIIRSHEVKAEGYEVAHGGRCVTVFSAPNYCDQMGNKASYIHLQGSDLRPQFHQFTAVPHPNVKPMAYANTLLQLGMM
notes: Pp5 (serine/threonine protein phosphatase 5), human; source: E. coli BL21 (DE3), purified (HisTrap, Resource Q, Superdex size exclusion)
B2: binds [2].

B3: human Fkbp51 (enzyme, UniProt Q13451 1-457, looked up)
chain: MTTDEGAKNNEESPTATVAEQGEDITSKKDRGVLKIVKRVGNGEETPMIGDKVYVHYKGKLSNGKKFDSSHDRNEPFVFSLGKGQVIKAWDIGVATMKKGEICHLLCKPEYAYGSAGSLPKIPSNATLFFEIELLDFKGEDLFEDGGIIRRTKRKGEGYSNPNEGATVEIHLEGRCGGRMFDCRDVAFTVGEGEDHDIPIGIDKALEKMQREEQCILYLGPRYGFGEAGKPKFGIEPNAELIYEVTLKSFEKAKESWEMDTKEKLEQAAIVKEKGTVYFKGGKYMQAVIQYGKIVSWLEMEYGLSEKESKASESFLLAAFLNLAMCYLKLREYTKAVECCDKALGLDSANEKGLYRRGEAQLLMNEFESAKGDFEKVLEVNPQNKAARLQISMCQKKAKEHNERDRRIYANMFKKFAEQDAKEEANKAMGKKTSEGVTNEKGTDSQAMEEEKPEGHV
notes: Fkbp51, human PPIase; source: E. coli BL21 (DE3), purified (HisTrap, Resource Q, Superdex size exclusion)
B3: binds [2].

B4: human Fkbp52 (enzyme, UniProt Q02790 1-459, looked up)
chain: MTAEEMKATESGAQSAPLPMEGVDISPKQDEGVLKVIKREGTGTEMPMIGDRVFVHYTGWLLDGTKFDSSLDRKDKFSFDLGKGEVIKAWDIAIATMKVGEVCHITCKPEYAYGSAGSPPKIPPNATLVFEVELFEFKGEDLTEEEDGGIIRRIQTRGEGYAKPNEGAIVEVALEGYYKDKLFDQRELRFEIGEGENLDLPYGLERAIQRMEKGEHSIVYLKPSYAFGSVGKEKFQIPPNAELKYELHLKSFEKAKESWEMNSEEKLEQSTIVKERGTVYFKEGKYKQALLQYKKIVSWLEYESSFSNEEAQKAQALRLASHLNLAMCHLKLQAFSAAIESCNKALELDSNNEKGLFRRGEAHLAVNDFELARADFQKVLQLYPNNKAAKTQLAVCQQRIRRQLAREKKLYANMFERLAEEENKAKAEASSGDHPTDTEMKEEQKSNTAGSQSQVETEA
notes: Fkbp52, human PPIase; source: E. coli BL21 (DE3), purified (HisTrap, Resource Q, Superdex size exclusion)
B4: binds [2].

B5: STI-1, nematode TPR cofactor of HSP-90 (homolog of human Hop) (natural protein, C. elegans, UniProt O16259 1-320, looked up)
chain: MTDAAIAEKDLGNAAYKQKDFEKAHVHYDKAIELDPSNITFYNNKAAVYFEEKKFAECVQFCEKAVEVGRETRADYKLIAKAMSRAGNAFQKQNDLSLAVQWFHRSLSEFRDPELVKKVKELEKQLKAAERLAYINPELAQEEKNKGNEYFKKGDYPTAMRHYNEAVKRDPENAILYSNRAACLTKLMEFQRALDDCDTCIRLDSKFIKGYIRKAACLVAMREWSKAQRAYEDALQVDPSNEEAREGVRNCLRSNDEDPEKAKERSLADPEVQEILRDPGMRMILEQMSNDPGAVREHLKNPEIFQKLMKLRDAGVIQMR
notes: STI-1, C. elegans; source: E. coli BL21 (DE3), purified (HisTrap, Resource Q, Superdex size exclusion)
B5: binds [3].

B6: human p23 (natural protein, UniProt Q15185 1-160, looked up)
chain: MQPASAKWYDRRDYVFIEFCVEDSKDVNVNFEKSKLTFSCLGGSDNFKHLNEIDLFHCIDPNDSKHKRTDRSILCCLRKGESGQSWPRLTKERAKLNWLSVDFNNWKDWEDDSDEDMSNFDRFSEMMNNMGGDEDVDLPEVDGADDDSQDSDDEKMPDLE
notes: p23 co-chaperone, human; source: E. coli BL21 (DE3), purified (HisTrap, Resource Q, Superdex size exclusion)
B6: binds [4].

B7: FKB-6, nematode large prolyl isomerase (FK1, FK2 and TPR domains) (enzyme, C. elegans, UniProt O45418 1-431, looked up)
chain: MSGEKIDITPKKDGGVLKLIKKEGQGVVKPTTGTTVKVHYVGTLENGTKFDSSRDRGDQFSFNLGRGNVIKGWDLGVATMTKGEVAEFTIRSDYGYGDAGSPPKIPGGATLIFEVELFEWSAEDISPDRDGTILRTIIVEGSKNSFPNDTSKVLAHCVGTYQGTEFYNREVNFHIGEGSEEGLPEGVERALRRFQLGEKSKIEIRGHKYTYGNSPPAGSNIPVNATLEFTIFLKEFEKVPATWEMTAEEKLDAAKQAKDRGTMYLQKGNLKLAYNKYKRAEEVLEYEKSTDPEKMAERETILNGAYLNLSLVCSKQNEQLECIKWCDKVLETKPGNVKALYRKATALLTMNEVRDAMKLFEKIVEVEPENKAAAQQIIVCRNTIREQNERDKKRFKNLFAKISTEEDKPTNTVEDEDEIVASTSGSSTSNA
notes: FKB-6, peptidyl prolyl isomerase with FK1, FK2 and C-terminal TPR region, C. elegans; source: E. coli BL21 (DE3), purified (HisTrap, Resource Q, Superdex size exclusion)
B7: binds [1].
